These results are taken from patent publication US9951373B2, “Oplophorus-derived luciferases, novel coelenterazine substrates, and methods of use” (Promega Corporation, priority 2010, dated 2018).

Data set [1] in a line: Protein (thermal) stability of OgLuc variants at 50° C. The data set is classed as physicochemical. The following applies: bacterial lysates, native coelenterazine. As to the method:
Lysates of E. coli containing 15C1, 9B8, 9F6, 8A3 or IV and E. coli expressing hRL (SEQ ID NO: 30 and 31) were prepared from induced cultures as described previously. Lysate samples were diluted 1:1000 with a buffer containing 10 mM HEPES pH 7.5 with 0.1% gelatin. Diluted lysate (100 μL) samples, in replicate 96-well plates, were incubated at 50° C. At different time points, plates were placed at −70° C. (minus seventy degrees Celsius). Prior to measuring the luminescence as described previously, each plate was thawed at room temperature, i.e., 22° C., for 10 min. Samples (10 μL of each thawed sample) were assayed using native coelenterazine as a substrate. Luminescence was measured immediately after addition of assay buffer for each time point plate. The half-life of the protein, which indicated protein stability, was calculated from the luminescence data for each time point using methods known in the art.

Data set [2] concerns HEK293 cells. The following applies: mole-to-mole basis, HT7 fusions.
In a further data set the test system is NIH3T3 cells. Put plainly: Luminescence of OgLuc variants expressed in NIH3T3 cells. The class given is cell-based. The following applies: PBI-3939. As to the method: (§1) The PCR library in the pF4Ag-based non-fusion background was screened for additional variants with increased luminescence compared to 9B8 opt+K33N+170G (SEQ ID NOs: 68 and 69). Selected variants were then assayed in HEK293 and NIH3T3 cells. For each cell type, 15,000 cells were plated and grown overnight at 37° C. The next day, the cells were transfected as described in Example 25 with 10 ng pGL4.13 (Promega Corp.) as a transfection control and 100 ng of the OgLuc test DNA. The media was removed, and the cells were lysed with 100 μL of lysis buffer as described in Example 25 except the lysis buffer contained 100 mM MES pH 6.0 instead of HEPES, and luminescence measured using a GLOMAX® Luminometer.
(§2) Based on the above data, further combination variants were designed and generated (see Table 10) in the context of the pF4Ag-based non-fusion vector background without the 170G. The variants were analyzed in E. coli, HEK293 and NIH3T3 cells as described above and compared to 9B8 opt+K33N. The variants were also examined for luminescence with native coelenterazine.
(§3) The brightness of the variants expressed in HEK293 and NIH3T3 cells was measured as described previously. The luminescence of the variants was normalized to the luminescence generated by 9B8 opt (Table 27).

Data set [3] is described as follows: Stability of variants expressed in HEK293 cells. The data set is classed as physicochemical. The following applies: 20 μM PBI-3939. As for the experimental part:
The variants 9B8 and V2 (9B8+K33N+T39T+K43R+Y68D) were also screened in HEK293 cells to determine their stability. The variants were cloned into pF4Ag and transfected into HEK293 cells (15,000 cells/well) as previously described. After transfection, the cells were lysed in assay reagent (as previously described; no PBI-3939), and luminescence measured using the assay reagent with 20 μM PBI-3939. […] This is consistent with the half-life seen for these variants in E. coli (Table 26).

Data set [4] can be described thus: Enzyme kinetics of OgLuc variants in E. coli lysates. The data set is classed as biochemical. The following applies: PBI-3939, E. coli lysates. As for the experimental part:
Using methods known in the art, enzyme kinetic assays measuring luminescence were performed with the lysates of E. coli containing IV and the IV variants 15C1, 9B8, 9F6, and 9A3. […] Two fold serial dilutions of PBI-3939 in the assay buffer described previously in Example 26 were assayed with the diluted lysates. […] Variants 9B8 and 9F6 had higher Km values compared to IV while Km values for the other variants were unchanged.
Luminescence was measured on a TECAN® INFINITE® F500 luminometer.
The enzyme kinetics values were determined for the OgLuc variants as described previously, except luminescence was measured using a GLOMAX® luminometer. Three replicates were used for each variant.

The nature of data set [5]: Thermal stability of OgLuc variants at 60° C. The data set is classed as physicochemical. The following applies: 60° C., assay buffer MES pH 6.0. As to the method: Aliquots were removed at different time-points and placed on dry ice to freeze the samples. […] Luminescence was measured on a GLOMAX® luminometer (Promega Corp.).
The thermal stability of the variants at 60° C. was examined as described above, except the assay buffer contained 100 mM MES pH 6.0 instead of HEPES.

The subject of data set [6] is HEK293 cells. Put plainly: Luminescence of OgLuc variants expressed in HEK293 cells. The class given is cell-based, human. The following applies: PBI-3939. As for the experimental part:
as §1, §2, §3

Data set [7] is described as follows: Stability of secreted OgLuc variants in saved media. The data set is classed as physicochemical. The following applies: secreted variant in saved media. As for the experimental part:
To determine if the secretion signal sequence of OgLuc facilitates its secretion, the OgLuc variants 9B8, V2 and L27V were cloned into pF4Ag containing an N-terminal OgLuc secretion signal sequence. The variants were also cloned into vectors without the secretion signal sequence. CHO or HeLa cells were then plates at 100,000 cells/well in 1 mL F12 media with 10% FBS and 1× sodium pyruvate (CHO cells) or DMEM with 10% FBS and 1× sodium pyruvate (HeLa cells) into 12-well plates and incubated overnight at 37° C., 5% CO2.
After the overnight incubation, the cells were transfected with 1 μg plasmid DNA containing 9B8, V2, or L27V with or without the secretion signal sequence using the TRANSIT®-LT1 transfection reagent (Mirus Bio) and OPTI-MEMO media (Invitrogen). The cells were again incubated overnight at 37° C., 5% CO2.
After the second overnight incubation, the media was removed and saved for analysis. […] To 10 μL of cell lysate or saved media from each sample, 50 μL assay buffer with 40 μM PBI-3939 was added, and luminescence measured as described above.
To determine the stability of the secreted variants, 150 μL aliquots of the saved media from each sample was placed at 37° C. or 50° C. The aliquots were then removed at different time points (0, 1, 2, 3, 5, 6, and 7 […]), frozen on dry ice, and kept at −20° C. until assayed. To assay for stability, the media aliquots were thawed to room temperature, and 10 μL of each aliquot was mixed with assay buffer with PBI-3939 (pH 6.0) as described above. Luminescence was measured as above, and the half-life (t50) determined (Table 34).

A short description of data set [8]: Luminescence of 9B8 opt+K33N derived variants in E. coli. The data set is classed as biochemical. The following applies: bacterial lysates. As for the experimental part:
Luminescence generated from the lysates was measured using the novel PBI-3939 and native coelenterazine as substrates. The relative specificity of the variants for PBI-3939 and native coelenterazine was calculated as described previously.
A new OgLuc library was created using 9B8opt+K33N as a starting template. The random library was created using DIVERSIFY® PCR Random Mutagenesis Kit (ClonTech; Catalog #630703). Condition 5 (as listed in the user manual) was used to generate additional variants, and the average mutation rate was calculated to be 2.6 mutations per gene by compiling sequence data from 83 randomly selected clones. This PCR library was cloned into the pF4Ag-based, non-fusion vector background described previously and the sandwich background, i.e., Id-OgLuc-HT7 (described in Example 45). Variants in the pF4Ag-base non-fusion vector background are designated with (NF). Variants in the sandwich vector background are designated with (F). In order to clone the PCR product into both vectors, an amino acid, i.e., a glycine, was appended to the variant sequence in pF4Ag, generating a new position 170 in the OgLuc variant (“170G”). The 170G is present in the sandwich construct, but in this case is considered part of the linker between OgLuc and HT7. For each library, 4,400 E. coli clones were assayed as described previously with the following exceptions. […] The assay buffer contained 100 mM MES pH 6.0 instead of HEPES, and 35 mM thiourea. The assay volumes were as follows: 10 μL cells, 40 μL, lysis buffer, and 50 μL, assay buffer.
E. coli lysates containing the variants were prepared and analyzed as described previously. Luminescence generated from the lysates was measured using the novel PBI-3939 and native coelenterazine as substrates. The luminescence of the variants was normalized to the luminescence generated by 9B8 opt (Table 12). The relative specificity of the variants for PBI-3939 and native coelenterazine was calculated by dividing the luminescence of the variants using PBI-3939 as a substrate with the luminescence of the variants using native coelenterazine as a substrate (Table 12).

B1: 9B8: IV variant with Q18L, F68Y, L72Q, M75K (SEQ ID NO: 19) (protein)
chain: MVFTLEDFVGDWRQTAGYNLDQVLEQGGLSSLFQKLGVSVTPIQKIVLSGENGLKIDIHVIIPYEGLSGYQMGQIEKIFKVVYPVDDHHFKVILHYGTLVIDGVTPNMIDYFGRPYEGIAVFDGKKITVTGTLWNGNKIIDERLINPDGSLLFRVTINGVTGWRLCERILA
The term half-life denotes the time in which the quantity being followed falls by half. Low readings indicate rapid decline, high ones slow decline. By Km is commonly meant the concentration of substrate that gives half-maximal velocity. On to B1, for which, in data set [1], the “½ life (hrs)” value stood at 5.8 h and the “½ life (min)” value was determined as 346.6 min. In the data set on HEK293 cells [2], the “fold brighter than Luc2” value was “approximately 15 fold” and the “fold brighter than hRL” value is on record as more than 100 fold. The “luminescence normalized to 9B8 opt, NIH3T3” value in the data set on NIH3T3 cells came out at 1.0. The half-life in [3] is 5.2 h. In [4], the Km stood at 7.7 µM and the Vmax is on record as 86,000,000 RLU/0.5 sec. The molecule further yielded a 1/2 life hours in data set [5] of 5.1 h. For the same molecule, the “luminescence normalized to 9B8 opt, HEK293” value with HEK293 cells [6] came to 1.0. Moreover, in data set [7], the “½ life 37 C.” value was found to be 8 days and the “½ life 50 C.” value came out at 3 h. The Fold over coelenterazine in data set [8] (luminescence with PBI-3939 divided by luminescence with native coelenterazine) turned out to be 7. Also, the “Fold over 9B8” value in [8] (luminescence with PBI-3939 normalized to 9B8 opt) is recorded as 1.0.
